Results: US20080279856A1, “Inhibition of Bradykinin Release” (Novo Nordisk Pharmaceuticals, Inc., priority 1999, published 2008)
Entries after “also recorded” stand apart in the source; their conditions may differ.

B1: porcine HBP: Porcine heparin-binding protein, very homologous to human HBP, unable to bind aprotinin (protein)
chain: IVGGRRAQPQEFPFLASIQKQGRPFCAGALVHPRFVLTAASCFRGKNSGSASVVLGAYDLRQQEQSRQTFSIRSISQNGYDPRQNLNDVLLLQLDREARLTPSVALVPLPPQNATVEAGTNCQVAGWGTQRLRRLFSRFPRVLNVTVTSNPCLPRDMCIGVFSRRGRISQGDRGTPLVCNGLAQGVASFLRRRFRRSSGFFTRVALFRNWIDSVLNNPP
B2: [G175Q]HBP: Mutant of human HBP with G175Q in the BPTI binding site (protein)
chain: IVGGRKARPRQFPFLASIQNQGRHFCGGALIHARFVMTAASCFQSQNPGVSTVVLGAYDLRRRERQSRQTFSISSMSENGYDPQQNLNDLMLLQLDREANLTSSVTILPLPLQNATVEAGTRCQVAGWGSQRSGGRLSRFPRFVNVTVTPEDQCRPNNVCTGVLTRRGGICNGDQGTPLVCEGLAHGVASFSLGPCGRGPDFFTRVALFRDWIDGVLNNPGP
B3: [R23S,F25E]HBP: Mutant of human HBP with R23S and F25E in the putative lipid A/LPS binding site (protein)
chain: IVGGRKARPRQFPFLASIQNQGSHECGGALIHARFVMTAASCFQSQNPGVSTVVLGAYDLRRRERQSRQTFSISSMSENGYDPQQNLNDLMLLQLDREANLTSSVTILPLPLQNATVEAGTRCQVAGWGSQRSGGRLSRFPRFVNVTVTPEDQCRPNNVCTGVLTRRGGICNGDGGTPLVCEGLAHGVASFSLGPCGRGPDFFTRVALFRDWIDGVLNNPGP

Columns and labels:
[1] = test system: HBP-induced increase in EC permeability; assay: Inhibition of HBP-induced increase in EC permeability; assay type: cell-based, human, bovine; conditions: peptide 3 μg/ml for 30 min, wash; HBP 75 μg/ml; N=6
Text: Alternatively, HBP antagonists may be detected by culturing endothelial cells in the presence of HBP and in the presence and absence of a substance suspected of being an antagonist. In a specific embodiment, the antagonist is a monoclonal antibody that binds to at least one epitope of HBP, preferably human HBP, wherein said epitope binds to prekallikrein-H-kininogen complex and activates release of bradykinin. In a preferred embodiment, the monoclonal antibody is a human monoclonal antibody. In one embodiment, the antibody and HBP are preincubated together before incubating with endothelial cells for about 10 minutes at 37° C. The effect of the substance on the permeability of endothelial cells is determined by measuring transendothelial electrical resistance or determining albumin clearance as described in the Examples, infra. A decrease in permeability would indicate that the substance does act as an HBP antagonist.
For measurement of electrical resistance across the EC monolayer, the filter insert is transferred to a resistance measurement chamber (ENDOHM-12; World Precision Instruments, Sarasota, Fla., USA) modified so as to assure exact positioning of the electrodes in relation to each other and to the filter insert during repeated measurements. The chamber (lower compartment) and the filter insert (upper compartment) are filled with 2 ml and 400 μl culture medium, respectively. […] Direct readings of the electrical resistance are given by an ohmmeter (EVOM; World Precision Instruments, Sarasota, Fla., USA) connected to the electrodes of the resistance chamber. The electrical resistance of individual EC monolayers is obtained by subtracting the resistance of the corresponding naked filter coated with Biomatrix as measured prior to seeding of the endothelial cells.
Evans blue dye-conjugated albumin (EBA) is used as a marker for macromolecular permeability of the EC monolayers. […] In experiments where albumin permeability is analyzed, the culture medium in the upper compartment is exchanged for medium containing EBA. […]

[2] = test system: bradykinin-induced increase in EC permeability; assay: Inhibition of bradykinin-induced increase in EC permeability; assay type: cell-based, human, bovine; conditions: peptide 3 μg/ml for 30 min; bradykinin 100 nM at 15 min after HBP
Method: For measurement of electrical resistance across the EC monolayer, the filter insert is transferred to a resistance measurement chamber (ENDOHM-12; World Precision Instruments, Sarasota, Fla., USA) modified so as to assure exact positioning of the electrodes in relation to each other and to the filter insert during repeated measurements. The chamber (lower compartment) and the filter insert (upper compartment) are filled with 2 ml and 400 μl culture medium, respectively. All measurements are made at 37° C. with the equipment placed in a cell culture incubator. Direct readings of the electrical resistance are given by an ohmmeter (EVOM; World Precision Instruments, Sarasota, Fla., USA) connected to the electrodes of the resistance chamber. The electrical resistance of individual EC monolayers is obtained by subtracting the resistance of the corresponding naked filter coated with Biomatrix as measured prior to seeding of the endothelial cells.
Before transferring the filter inserts to the resistance measurement chamber (kept at 37° C.), the medium in the insert and in the chamber is replaced with fresh culture medium (37° C.) supplemented with 10 mM Hepes. HBP (25-100 μg/ml) or PMN secretion product is added either to the upper or the lower compartment and change in transendothelial electrical resistance is measured every minute until a plateau phase is reached, and thereafter at 5-min intervals. In separate experiments, PMNs (2×10^6) preincubated with mAb IB4 (10 μg/ml) are added to the upper compartment (PMN:EC ratio=10:1) and allowed to sediment for 10 min. Activation of the PMNs is induced through antibody crosslinking of leukocytic CD18 by addition of goat anti-mouse IgG F(ab′)2 diluted 1:20. In experiments where albumin permeability across the EC monolayer is studied, the medium in the insert contained EBA. During the experiment, the filter insert is moved at 5-10 min intervals to new wells containing fresh medium. All incubations are made at 37° C. After the experiment, the medium in the lower wells is aspirated and analyzed for EBA content.

endothelial cells = assay: EC response to CD18 cross-linking in PMNs (Ca2+ and TEER); assay type: cell-based, human, bovine; conditions: EC pre-treated
Method: Human umbilical vein endothelial cells (HUVEC) and bovine aorta endothelial cells (BAEC) are isolated and cultured as previously described (Gautam et al. 1998, Brit. J. Pharm. 125:1109-1114). HUVEC or BAEC in the first to fifth passages are detached by brief (2 min) trypsin-EDTA treatment (0.25% trypsin/0.01% EDTA) and replated onto either 0.2 μm pore size Anopore inorganic membrane or 3.0 μm pore size polycarbonate filters (Tissue Culture inserts, 10 mm; NUNC, Roskilde, Denmark). In order to promote cellular differentiation and enhance attachment of endothelial cells (ECs), the filters are pretreated with 50 μl Biomatrix 1 (167 μg/ml) and air-dried. […] The EC are grown to confluent monolayers, as assessed by daily microscopic observation and measurement of the electrical resistance across the monolayer (Gautam et al 1998, Brit. J. Pharm. 125:1109-1114).
Two different approaches are used for assessment of stimulation-induced changes in EC permeability. […] Electrical resistance across the EC monolayer is measured at 37° C. with electrodes in each compartment exactly positioned in relation to each other and to the monolayer. The electrical resistance of individual EC monolayers is obtained by subtracting the resistance of the corresponding naked filter coated with Biomatrix as measured prior to seeding of the endothelial cells. […]

aprotinin = aprotinin (Bos taurus, UniProt P00974); assay: Ability of HBP variants to bind aprotinin; assay type: binding
human monocytes = assay: LPS induced IL-6 release from monocytes; assay type: cell-based; conditions: 24 hours, serum-free medium
Text: Human monocytes are isolated and treated as described (Rasmussen, P. B., Bjørn, S., Hastrup, S., Nielsen, P. F., Norris, K., Thim, L., Wiberg, F. C., and Flodgaard, H. (1996) FEBS Lett. 390: 109-112), with the exception that 1% non-essential amino acids is excluded from the medium.

[3] = 3H-LPS binding to HBP, scintillation proximity assay
Method: The affinity for lipopolysaccharide (3H-LPS) is measured by scintillation proximity assay technology (SPA) as described (Linde, V., Bjørn, S., Kastrup, J. S., and Flodgaard, H., 2000, Biotechniques 28:218-222). All samples are repeated in triplicates.

125I-BPTI = 125I-BPTI binding to HBP, scintillation proximity assay; design: species or system bovine
Method: (§1) The relative affinities of HBP and the mutants are determined by performing competition studies with […] of unlabeled BPTI.

[4] = as above; design: species or system bovine; conditions: competition with unlabeled BPTI; read-out: apparent IC50 of 125I-BPTI binding
Method: as §1

Molecule	effect on HBP-induced increase in EC permeability [1]	effect on bradykinin-induced permeability change [2]	stimulation of LPS induced cytokine-release (IL-6) (human monocytes)	lipid A/LPS binding property [3]	binding of BPTI (125I-BPTI)	other results
HKHGHGHHKKNKGKKNGKH (listed as Homo sapiens) [HKH20]	prevented	but not the permeability change induced by subsequent administration of bradykinin	–	–	–	–
SDDDWIPDIQTDPNGLSFNPISDFPDTTSPK (listed as Homo sapiens) [SDD31]	largely prevented	persisted	–	–	–	–
CC(=O)OCOC(=O)CN(CC(=O)OCOC(C)=O)c1ccccc1OCCOc1ccccc1N(CC(=O)OCOC(C)=O)CC(=O)OCOC(C)=O [BAPTA AM]	–	–	–	–	–	effect on change in TEER (endothelial cells): completely inhibited; effect on rise in EC free intracellular Ca2+ (endothelial cells): completely inhibited
B1	–	–	–	–	–	ability to bind aprotinin (aprotinin): unable to bind aprotinin
B2	–	–	only a very limited stimulation	comparable to that of native HBP	eliminated; also recorded: no binding	–
B3	–	–	do not affect	do not affect	do not affect; also recorded: binds BPTI	IC50 [4]: ~7 nM; binding capacity for 125I-BPTI (125I-BPTI): larger binding capacity as compared to HBP
